{
  "source": "paper PMC6386767",
  "about": "“Characterization of recombinant fructose-1,6-bisphosphatase gene mutations: evidence of inhibition/activation of FBPase protein by gene mutation” (Bioscience Reports, 2019)",
  "molecules": {"B1": {"name": "L56A: pig kidney FBPase mutant Leu^56 to alanine, near PFE tetramer interface site (protein, UniProt P00636 2-338, looked up, variant L56A)", "Fructose-1,6-bisphosphatase 1": "TDQAAFDTNIVTLTRFVMEEGRKARGTGEMTQLLNSLCTAVKAISTAVRKAGIAHAYGIAGSTNVTGDQVKKLDVLSNDLVINVLKSSFATCVLVSEEDKNAIIVEPEKRGKYVVCFDPLDGSSNIDCLVSIGTIFGIYRKNSTDEPSEKDALQPGRNLVAAGYALYGSATMLVLAMVNGVNCFMLDPAIGEFILVDRDVKIKKKGSIYSINEGYAKEFDPAITEYIQRKKFPPDNSAPYGARYVGSMVADVHRTLVYGGIFMYPANKKSPKGKLRLLYECNPMAYVMEKAGGLATTGKEAVLDIVPTDIHQRAPIILGSPEDVTELLEIYQKHAAK"}},
  "target": "T1, pig kidney FBPase L56A (Sus scrofa, UniProt P00636, L57A)",
  "T1 construct": "His6 (C); made in house; host or cells: Escherichia coli BL21 (DE3)",
  "T1 sequence (P00636 1-338 L57A)": "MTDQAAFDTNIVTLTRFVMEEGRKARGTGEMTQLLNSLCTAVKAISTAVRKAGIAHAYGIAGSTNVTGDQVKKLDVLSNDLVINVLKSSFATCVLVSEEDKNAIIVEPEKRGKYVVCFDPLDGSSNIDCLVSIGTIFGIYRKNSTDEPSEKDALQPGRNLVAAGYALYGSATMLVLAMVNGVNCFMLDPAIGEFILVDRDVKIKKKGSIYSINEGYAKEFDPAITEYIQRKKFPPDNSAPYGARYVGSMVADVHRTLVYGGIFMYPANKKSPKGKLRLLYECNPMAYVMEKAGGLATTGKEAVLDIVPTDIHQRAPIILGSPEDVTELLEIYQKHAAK",
  "test": "Differential scanning fluorimetry, L56A mutant",
  "type": "binding",
  "conditions": "enzyme L56A 5 µM, no ligand",
  "experimental": "Differential scanning fluorimetry (DSF) assays were designed and implemented to run on WT and each mutant for the purpose of determining relative stabilities by melting point, and to detect structural changes in the enzymes upon ligand binding. Thermal shift assays were performed with a Light Cycler 96 System Real-Time PCR machine (Roche) using Sypro-Orange dye (Invitrogen) and thermal ramping (0.25°C per min between 20 and 85°C). […] Data were processed using the Boltzmann equation to generate sigmoidal denaturation curves, and average Tm/ΔTm values were calculated as previously described using GraphPad Prism software package.",
  "data": [
    {"molecule": "B1", "values": [
      {"measurement": "melting point, No Ligand", "value": "56.0 (± 3.00) °C"}
    ]}
  ]
}
